We go through one protein from article PMC6755732, “Structural, Biochemical, and In Vivo Characterization of MtrR-Mediated Resistance to Innate Antimicrobials by the Human Pathogen Neisseria gonorrhoeae” (Journal of Bacteriology, 2019).

The series concerns the molecule itself. Kind of series: crystal structure; hanging-drop vapor diffusion; 1.6 M Na+/K+ phosphate, 0.2 M LiSO4, 0.1 M CAPS pH 10.5; space group C2; two MtrR dimers in the asymmetric unit.

B1: MtrR (natural protein)
chain: MRKTKTEALKTKEHLMLAALETFYRKGIARTSLNEIAQAAGVTRGALYWHFKNKEDLFDALFQRICDDIENCIAQDAADAEGGSWTVFRHTLLHFFERLQSNDIHYKFHNILFLKCEHTEQNAAVIAIARKHQAIWREKITAVLTEAVENQDLADDLDKETAVIFIKSTLDGLIWRWFSSGESFDLGKTAPRIIGIMMDNLENHPCLRRK
notes: also called native MtrR; WT MtrR
Turning to B1, the binding result was “binds”.
